B1: Nrd1 CID [S. cerevisiae] / Sen1 NIM peptide, FAM-labelled [modified: 5,6-carboxyfluorescein (FAM) on the N-terminus; 5,6-carboxyfluorescein (FAM) on the N-terminus] [S. cerevisiae] (parent complex)
chain 1: MQQDDDFQNFVATLESFKDLKSGISGSRIKKLTTYALDHIDIESKIISLIIDYSRLCPDSHKLGSLYIIDSIGRAYLDETRSNSNSSSNKPGTCAHAINTLGEVIQELLSDAIAKSNQDHKEKIRMLLDIWDRSGLFQKSYLNAIRSKCFAMD
chain 2: DDDEDDYTPSIS

The text below walks through data of paper PMC7110113, “Termination of non‐coding transcription in yeast relies on both an RNA Pol II CTD interaction domain and a CTD‐mimicking region in Sen1” (The EMBO Journal, 2020).

In the assay the parent is B1. Kind of assay: fluorescence anisotropy (FA); parent: 1.2e+03 nM.
Broadly, the Kd is the equilibrium constant for the complex coming apart. As for chain 1 I130A, the dissociation constant Kd amounted to 7.38 µM.
